Assay [1] addresses T1, human Trop-2 on the surface of cells (CHO/Trop-2 cells; BxPC-3 cells; NCI-N87 cells) (human, UniProt P09758 27-323).
T1 sequence (looked up): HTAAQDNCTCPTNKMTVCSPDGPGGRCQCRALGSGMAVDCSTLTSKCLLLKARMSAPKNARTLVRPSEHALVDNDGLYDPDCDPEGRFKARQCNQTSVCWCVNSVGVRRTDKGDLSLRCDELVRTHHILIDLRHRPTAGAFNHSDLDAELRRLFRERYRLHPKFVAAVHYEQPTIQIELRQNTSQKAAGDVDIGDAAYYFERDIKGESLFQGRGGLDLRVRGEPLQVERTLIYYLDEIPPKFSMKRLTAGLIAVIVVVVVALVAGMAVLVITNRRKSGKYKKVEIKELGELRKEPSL
Nature of the assay: cell-based or functional assay.

Assay [2] has as its target T2, recombinant human Trop-2-his protein (ACCESSION NO.: NP_002344.2, AA 1-274) (human, UniProt P09758 27-274).
T2 construct: range 27-274; also called recombinant human Trop-2 protein; recombinant human Trop-2 extracellular domain; not shown: his tag
T2 sequence (looked up): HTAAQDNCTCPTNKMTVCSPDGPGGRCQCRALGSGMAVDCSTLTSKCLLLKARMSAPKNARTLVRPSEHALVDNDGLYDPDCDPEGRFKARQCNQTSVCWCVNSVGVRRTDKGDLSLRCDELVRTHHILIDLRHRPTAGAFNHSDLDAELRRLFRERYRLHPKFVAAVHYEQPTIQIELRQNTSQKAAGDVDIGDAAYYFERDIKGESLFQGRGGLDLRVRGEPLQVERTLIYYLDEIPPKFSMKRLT
Nature of the assay: BLI, SN38-labeled antibody on AHC sensor, Trop-2-his 60 nM, 300 s binding. As for the experimental part:
Affinities of the antibodies were determined by an assay including capturing Fc fragments of the antibodies with anti-human IgG Fc capture (AHC) biosensors using Octet QKe system instrument from Fortebio.
For the assay, SN38-labeled antibodies prepared as described above: h23-12-SN38, ch4-3-SN38, ch11-4-SN38, and positive control antibody Sacituzumab-SN38, as well as naked antibodies h23-12, ch4-3, ch11-4, and positive control antibody Sacituzumab were diluted to 4 μg/ml with PBS and allowed to flow through the surface of an AHC biosensor (Cat.: 18-0015, PALL) for 120 s. Recombinant human Trop-2-his protein (ACCESSION NO.: NP_002344.2, AA 1-274) was used as a mobile phase, and its concentration was 60 nM. The binding time was 300 s and the dissociation time was 300 s. When the assay was finished, data from which the response value of blank control had been deducted were fitted to a 1:1 Langmuir binding model using software, and then kinetic constants for antigen-antibody binding were calculated.

The target in assay [3] is T1, human Trop-2 on the surface of cells …. Nature of the assay: cell-based or functional assay. This is another data set of the same source.
Assay [4] has the same target. Nature of the assay: cell-based or functional assay. This is another data set of the same source.
Assay [5] concerns the target T3, recombinant mouse Trop-2-his protein (Cat.: 50922-M08H, Beijing Yiqiao Shenzhou Science and Technology Co., … (mouse, UniProt Q8BGV3 25-270)).
T3 construct: Bought protein; not shown: his tag
T3 sequence (looked up): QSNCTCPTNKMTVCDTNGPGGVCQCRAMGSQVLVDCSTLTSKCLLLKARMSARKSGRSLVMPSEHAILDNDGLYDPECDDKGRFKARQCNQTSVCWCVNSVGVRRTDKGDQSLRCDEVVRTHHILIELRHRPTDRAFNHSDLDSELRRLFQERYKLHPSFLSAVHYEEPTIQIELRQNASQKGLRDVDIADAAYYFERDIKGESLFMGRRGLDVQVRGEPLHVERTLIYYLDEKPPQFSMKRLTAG
Nature of the assay: ELISA, coated mouse Trop-2-his, purified murine antibody. As for the experimental part: Washed with PBS 3 times, the plates were blocked with the added 5% BSA PBS at 37° C. for 60 min, and then washed 3 times with PBST. The 15 purified murine antibodies were diluted to 1 μg/ml with PBS. Controls as follows were set: (1) Positive Control (PC): Sacituzumab (WHO Drug Information (Vol. 31, No. 1, 2017), SEQ ID NO: 39 and SEQ ID NO: 40), a version having murine IgG constant region, […]; (2) Negative Control (NC): an antibody from an irrelevant hybridoma, 1 μg/ml; (3) blank control: PBS. After incubation at 37° C. for 60 min, the plates were washed 4 times with PBST. […] Afterwards, the plates were washed with PBST 4 times, and TMB substrate was added for color development at 37° C. for 10 min. Then 2M HCl was added to stop reaction; and absorbances at 450 nm and at 630 nm (as reference wavelength) were read, and A450 nm-630 nm values of the wells in the plates were recorded.
A general note: ELISA stands for enzyme-linked immunosorbent assay.

B1: ch4-3-SN38 (antibody, V domains shown)
VH: QVQLQQSGPELVKPGASVKMSCKASGFTFTDYVIGWVKQRTGQGLEWIGEIYLGSGTIYYTEKFKGKATLTADTSSNTAYMQLSSLTSEDSAVYFCARGSIFPFDYWGQGTTLTVSS
VL: QIVLTQSPAIMSASPGEKVTMTCSASSSVSYMYWYQQKPGSSPRLLIYDTSTLASGVPVRFSGSGSGTSYSLTISRMEAEDAATYYCQQWSSYPYTFGGGTKLEIK
modifications: CL2A-SN-38 conjugated to the DTT-reduced antibody; 7.5 SN38 per antibody; sites not stated
notes: also called ch4-3 labeled with SN38
Take B1: the “IC50 (µg/ml), inhibitory activity of anti-Trop-2 ADCs on cell growth, BxPC-3 cells” value (“IC50 (µg/ml), inhibitory activity” for short) in assay [1] turned out to be 3.3 µg/mL. In assay [2], the Kd (usually the equilibrium constant for the complex coming apart) was 177 pM. Besides, in assay [3], the “Internalization percentage, 1 h, NCI-N87 cells, FACS” value amounted to 64.6%. Besides, in assay [4], the “Internalization percentage, 1 h, BXPC-3 cells, FACS” value amounted to 57.7%.

B2: m4-3 (antibody, mouse IgG1, V domains shown)
VH: QVQLQQSGPELVKPGASVKMSCKASGFTFTDYVIGWVKQRTGQGLEWIGEIYLGSGTIYYTEKFKGKATLTADTSSNTAYMQLSSLTSEDSAVYFCARGSIFPFDYWGQGTTLTVSS
VL: QIVLTQSPAIMSASPGEKVTMTCSASSSVSYMYWYQQKPGSSPRLLIYDTSTLASGVPVRFSGSGSGTSYSLTISRMEAEDAATYYCQQWSSYPYTFGGGTKLEIK
notes: also called murine antibody 4-3
B2: the binding result in assay [5] was “no binding (tested: 1 µg/ml)”.

B3: m11-4 (antibody, mouse IgG1, V domains shown)
VH: QVQLQQPGAELVRPGASVNLSCKASGYTFTSYWINWVKQRPGQGLEWIGNIYPSNSYTNYNQKFKDTATLTVDKSSSTAYMQLSSPTSEDSAVYFCSSYRSDGFAYWGQGTLVTVSA
VL: DILLTQSPAILSVSPGEKVSFSCRASQNIGTSIHWYQQRTNGSPRLLIEFASESISGIPSRFSGSGSGTDFTLTINSVESEDIADYYCQQSNSWPFTFGGGTKLEIK
notes: also called murine antibody 11-4; ml 1-4
As for B3, the binding result in assay [5] is on record as “no binding (tested: 1 µg/ml)”.

B4: h23-12-SN38 (antibody, human IgG1, kappa, V domains shown)
VH: QVQLVQSGAEVKKPGASVKVSCKASGYTFTSYWMHWVRQAPGQGLEWMGEITPSDNYGSYNQKFKGRVTITRDTSTSTAYMELSSLRSEDTAVYYCARGHGNYVSFDYWGQGTLVTVSS
VL: DIQMTQSPSSLSASVGDRVTITCRASQDISNYLNWYQQKPGKAPKLLIYYTSRLESGVPSRFSGSGSGTDFTLTISSLQPEDFATYFCQQGYTLPPYTFGQGTKLEIKR
modifications: CL2A-SN-38 conjugated to the DTT-reduced antibody; 7.5 SN38 per antibody; sites not stated
notes: also called h23-12 labeled with SN38
On to B4, for which the “IC50 (µg/ml), inhibitory activity” value in assay [1] came to 1.41 µg/mL. Also, in assay [2], the Kd came out at 441 pM. The “Internalization percentage, 1 h, NCI-N87 cells, FACS” value in assay [3] worked out at 51.1%. Besides, in assay [4], the “Internalization percentage, 1 h, BXPC-3 cells, FACS” value was determined as 20.1%.

B5: m23-12 (antibody, mouse IgG1, V domains shown)
VH: QVQLQQPGAELVKPGASVKLSCKADGYIFTSYWMHWVKQRPGQGLEWIGEITPSDNYTSYNQKFKGKATLTVDKSSSTAYMQLSSLTSEDSAVYYCTRGHGNYVSFDYWGQGTTLTVSS
VL: DIQMTQITSSLSASLGDRVTITCRASQDISNYLNWYQQKPDGTVKLLIYYTSRLHSGVPSRFSGSGSGTDYSLTISNLEQEDIATYFCQQGYTLPPYTFGGGTKLEIK
notes: also called murine antibody 23-12
On to B5, for which the binding result in assay [5] was “no binding (tested: 1 µg/ml)”.

B6: m3-11 (antibody, mouse IgG1, V domains shown)
VH: QVQLQQPGAELVKPGSSVKLSCKASGYTFTSYWMYWVKQRPGQGLEWIGEINPSNGRTNYNEKFKSKATLTVDKSSSTAYMQFSSLTSEDSAVYYCTREGHNYDGSLGAMDHWGQGTSVTVSS
VL: DVVVTQTPLSLPVSFGDQVSISCRSSQSLTNSYGNTFLSWYLHKPGQSPQLLLYGISNRFSGVPDRFSGSGSGTDFTLKINTIKPEDLGMYYCFQSTHQPYTFGGGTKLEIK
notes: also called murine antibody 3-11
For the molecule B6, the binding result in assay [5] is listed as “no binding (tested: 1 µg/ml)”.

B7: Sacituzumab-SN38 (antibody, human IgG1, kappa, V domains shown)
VH: QVQLQQSGSELKKPGASVKVSCKASGYTFTNYGMNWVKQAPGQGLKWMGWINTYTGEPTYTDDFKGRFAFSLDTSVSTAYLQISSLKADDTAVYFCARGGFGSSYWYFDVWGQGSLVTVSS
VL: DIQLTQSPSSLSASVGDRVSITCKASQDVSIAVAWYQQKPGKAPKLLIYSASYRYTGVPDRFSGSGSGTDFTLTISSLQPEDFAVYYCQQHYITPLTFGAGTKVEIKR
modifications: CL2A-SN-38 conjugated to the DTT-reduced antibody; 7.5 SN38 per antibody; sites not stated
notes: also called Sacituzumab labeled with SN38
Take B7: the “IC50 (µg/ml), inhibitory activity” value in assay [1] is 4.31 µg/mL. Further, in assay [2], the Kd came to 431 pM. The “Internalization percentage, 1 h, NCI-N87 cells, FACS” value in assay [3] came out at 47.5%. In addition, the “Internalization percentage, 1 h, BXPC-3 cells, FACS” value in assay [4] is 32.7%.

The values are drawn from patent US20240092930A1 (MABWELL SHANGHAI BIOSCIENCE, published 2024).
